# Measured values: US20240026407A1, “MODIFICATION OF SAPONINS” (GLAXOSMITHKLINE BIOLOGICALS SA, priority 2020, published 2024)
# B1: 1057 (protein, listed as Parabacteroides goldsteinii)
# chain: MKVDITKIFTILFVIAFAGCLLQSCNSSINGLEQGFFNPPDSVRPGVYWYFMDGNLSKEAMTKDLESMKEAGIGHVVYLEVNVGVPRGSVDFLSDEWQEMFAHAVAECERLGIDITLGVGPGWTGSGGPWVEGAQSMMHLVSSSVNVSGKGKKTIALPKPSPKPHFFAEDNFTPESKKRWEEYYEDVAVLAFPAGASTFGTDYEAGSAYLRITGIEEKALYYRKPYSSVTQVKPYLTFGKDSFTVQTVDKDCIIDLTDHLEIDGTLTWEVPEGDWTIMRFGARNNGAVTRPAPHPGVGLETNKFDTTALNAHLDKFVTKLFNRVGFKKAQPQGGLQMLHMDSWEMGAQNWTTHFREEFTKRRGYDPQPFYPVYAGFIVQSREESERFLWDLRVTSQELIKEYHAGHIKSYGKRYGLGLSIEPYDMNPTADLELASVADMPMCEFWSVGYGYNTSFSAMEGTSVAHLLGQPVVPAESFTAYLDGWRQHPGSMKNQTDWALASGINRLMFHTFQHQPLNDRLRPGMTMGPYGVHWDRNQTWWPMADAYHRYISRCQLLLQQGRTVADILYLTPEGAPHVFRAPISALEGDLLDTDNLFNFRNETPLPDRKGYNFDACPPSLFYDAQVKDGKVVFPSGVSYRLLVLPCFETMTPELLEKIRDLVNGGATVVGLPPQKSPSLVNYPVCDEKVRVLVQELWGGYEIPETVEIRSIGKGKVIWSKELLEQQDNLYPTYEYTADILAKMDVHEDFESTGEIRYTHRTMKGYEIYFVSNRKDSPVTVNCKFRMTGHPELWNPMTGEIRPLAEYTVTGVHTTIPLLFDANEGYFIVFRDNTFQREIQTKKNFPDSRRVASLTAPWSVSFDPAWGGPEQVTFEKLTDWTQHPDSGIRYYSGTAIYRQTFDRPADNSKQQFLDLGKVKNLARVRLNGQDLGVVWTAPWRVEITKALKLKDNQLEIEVVNLWPNRLIGDEQLPDDGIRNGEWPEWLKDGGPRTSGRYTFTTYKHFTKESPLLESGLLGPVTIWGIDN
# B2: 1038 (protein, listed as Formosa agariphila)
# chain: MILHKSVFKSYIYVLTYFVFFSVMSCENSSVLQEAKHLTISEGFKNPLGFYDAKPTFSWELPVVEGVISQSAYQIVVASSPDLLPNNPDLWDSNKQSSSQSVWINYEGKPLVSRQKVFWQVKYWNQDDKASNWSPVQNFELGLLNNSDWKAKWIGLPTKEEGVLGSQDNIIHRPQYLRKVFELSNDVANARLYITAKGVFDVAINGEDVSDDVMPPGYTPYKKRIETITYDVTDLIESGQNTIGVEVAAGWHSGRLGWMKSYWSDTESPKILCQLEVTMKDGSKASIISDDTWKATTQGPIRISEIYDGETYDAHLEMPHWTTNSFDDKNWKAVQAFPVTSTIKLEPKRHTTVKSKIVLESKEIILKADAAIFDLQQNMVGVPLLKVPMKMGDTLKIRFAEMLSPDGTFYTDNYRSAQSTDYYIAAKEGTIEWMPKFTFHGFRYVELSGFDASKTPSKNWVKGVVQYSNFNENGSFTSSHEKLNQLQSNIVWGLRGNFFDIPTDCPQRDERMGWTGDAQVFGPTSMFNADVYKFWASWMQSVRESQYDNGGIPFVVPDVLHNGKVSSGWGDVCTIIPWKIYYRTGDVGILEENYDMMKKWVAHHQATSKDFISHMNSFADWLQPYPENGNNKGDTSHSLIGTAFFAHSAKLTAKTAEVLGKKEEQATYEALYKSVAKAFENAFFKNGKVKDVTATQTSYLLALAFDLLSEENKENAKQQLLEKISEADNHLRTGFLGTPLLSEVLDETGEIDLMYKLLFNETYPSWFYSINQGATTIWERWNSYSKAEGFNPMKMNSLNHYAYGAIGEWMYERITGIAPLQAGYKIISIAPIPKAPLTSASATLNTPYGEVASSWEIKNETLFLEVVVPPNTTAEIEIPTDNSESLKVDNENFTNGKNLKLIKNEKRKIKILAQPGTYEFQAKYSL
# Tests used:
# Type in all cases: biochemical, Quillaja saponaria
# [1] = Experiment 6-1: screening of rhamnosidases for derhamnosylation of saponins in treated bark extract (2%), QS-17 2296 to QS-18 2150 (PAR %); settings: TBE 2%, pH 7.5, 30 degC, 18 h; TIC peak area ratio percent of rhamnosylated starting saponin to derhamnosylated product, LCMS/MS; negative controls 4.876, 5.225
# [2] = Experiment 6-1: screening of rhamnosidases for derhamnosylation of saponins in treated bark extract (2%), desglucosyl-QS-17 2134 to QS-21 1988 (PAR %); settings: TBE 2%, pH 7.5, 30 degC, 18 h; TIC peak area ratio percent, LCMS/MS; negative controls 2.719, 2.158
# [3] = Experiment 6-1: screening of rhamnosidases for derhamnosylation of saponins in treated bark extract (2%), QS-17 2310 to QS-18 2164 (PAR %); settings: TBE 2%, pH 7.5, 30 degC, 18 h; TIC peak area ratio percent, LCMS/MS; negative controls 3.061, 2.429
# [4] = Experiment 6-1: specificity of rhamnosidases towards other rhamnose residues (C3 saccharide rhamnose, C28 saccharide rhamnose); settings: TBE 2%, pH 7.5, 30 degC, 18 h; LCMS/MS; negative controls 0.18, 0.17
molecule,measurement,setting,value
B1,QS-17 (PAR %),[1],4.670%
same,Peak75 (PAR %),[2],2.498%
same,Peak57 (PAR %),[3],3.213%
same,ratio PP/QS-21,[4],0.15
B2,QS-17 (PAR %),[1],4.725%
same,Peak75 (PAR %),[2],2.512%
same,Peak57 (PAR %),[3],2.913%
same,ratio PP/QS-21,[4],0.18
